Source: patent publication US20240239863A1, “GIP RECEPTOR AGONIST AND USE THEREOF” (HANGZHOU ZHONGMEIHUADONG PHARMACEUTICAL CO., LTD., priority 2022, published 2024)
Read-outs that look alike come from different tables or passages of the source. Non-standard residues stand in square brackets, D forms with d. Residues, ends and D or L forms follow the SMILES beside them. No end group written: not given here. Aib = CC(C)(N)C(=O)O

T1: human GIP receptor (glucose-dependent insulinotropic peptide receptor, GIPR) (human, UniProt P48546 22-466)
T1 sequence (looked up): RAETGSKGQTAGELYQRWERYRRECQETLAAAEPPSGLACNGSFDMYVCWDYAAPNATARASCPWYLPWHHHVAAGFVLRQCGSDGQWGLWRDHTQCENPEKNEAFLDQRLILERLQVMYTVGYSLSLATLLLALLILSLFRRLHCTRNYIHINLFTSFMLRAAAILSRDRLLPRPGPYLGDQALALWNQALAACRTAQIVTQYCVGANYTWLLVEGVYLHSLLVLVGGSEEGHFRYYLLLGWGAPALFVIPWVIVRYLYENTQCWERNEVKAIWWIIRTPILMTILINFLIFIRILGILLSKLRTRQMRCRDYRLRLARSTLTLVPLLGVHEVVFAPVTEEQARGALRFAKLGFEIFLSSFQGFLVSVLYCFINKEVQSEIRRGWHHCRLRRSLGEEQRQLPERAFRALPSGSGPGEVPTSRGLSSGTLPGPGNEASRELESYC

B1: Sequence 18 (Seq ID. 18) (peptide)
peptide: Y[Aib]EGTFISDYSIALDRLHQQDFVNWLLAQKG
B2: Peptide 12 (long-acting conjugate of GIP analog, Seq ID. 12) (peptide)
peptide: Y[Aib]EGTFISDYSIALDRIHQEDFVNWLLAQKG
modifications: also: long-acting conjugating component, site and structure not given here
B3: Peptide 5 (long-acting conjugate of GIP analog, Seq ID. 5) (peptide)
peptide: Y[Aib]EGTFISDYSIALDEIHQKDFVNWLLAQRG
modifications: also: long-acting conjugating component, site and structure not given here
B4: Peptide 8: N-{ε-16}-18-{[(23R)-23-carboxyl-2,11,20-trioxo-10,19-diaza-4,7,13,16-tetraoxatricosyl-23-yl]amino}-18-oxooctadecanoic acid acetyl-[Aib2, L14, L17, … (peptide)
peptide: Y[Aib]EGTFISDYSIALDK(18‑(((23R)-23-carboxyl-2,11,20-trioxo-10,19-diaza-4,7,13,16-tetraoxatricosyl-23-yl)amino)‑18‑oxooctadecanoic acid acetyl)LHQQDFVNWLLAQRG
B5: Sequence 14 (Seq ID. 14) (peptide)
peptide: Y[Aib]EGTFISDYSIALDRIHQQDFVNWLLAQKG
B6: Peptide 6 (long-acting conjugate of GIP analog, Seq ID. 6) (peptide)
peptide: Y[Aib]EGTFISDYSIALDELHQKDFVNWLLAQRG
modifications: also: long-acting conjugating component, site and structure not given here
B7: Peptide 11 (long-acting conjugate of GIP analog, Seq ID. 11) (peptide)
peptide: Y[Aib]EGTFISDYSIALDRIHQEDFVKWLLAQRG
modifications: also: long-acting conjugating component, site and structure not given here
B8: Peptide 7: N-{ε-16}-18-{[(23R)-23-carboxyl-2,11,20-trioxo-10,19-diaza-4,7,13,16-tetraoxatricosyl-23-yl]amino}-18-oxooctadecanoic acid acetyl-[Aib2, L14, … (peptide)
peptide: Y[Aib]EGTFISDYSIALDK(18‑(((23R)-23-carboxyl-2,11,20-trioxo-10,19-diaza-4,7,13,16-tetraoxatricosyl-23-yl)amino)‑18‑oxooctadecanoic acid acetyl)IHQQDFVNWLLAQRG
B9: Sequence 13 (Seq ID. 13) (peptide)
peptide: Y[Aib]EGTFISDYSIALDRIHQQDFVKWLLAQRG
B10: Sequence 16 (Seq ID. 16) (peptide)
peptide: Y[Aib]EGTFISDYSIALDRLHQEDFVNWLLAQKG
B11: Sequence 15 (Seq ID. 15) (peptide)
peptide: Y[Aib]EGTFISDYSIALDRLHQEDFVKWLLAQRG
B12: Sequence 3 (Seq ID. 3) (peptide)
peptide: Y[Aib]EGTFISDYSIALDKIHQEDFVKWLLAQKG
B13: Sequence 12 (Seq ID. 12) (peptide)
peptide: Y[Aib]EGTFISDYSIALDRIHQEDFVNWLLAQKG
B14: Peptide 15 (long-acting conjugate of GIP analog, Seq ID. 15) (peptide)
peptide: Y[Aib]EGTFISDYSIALDRLHQEDFVKWLLAQRG
modifications: also: long-acting conjugating component, site and structure not given here
B15: Sequence 10 (Seq ID. 10) (peptide)
peptide: Y[Aib]EGTFISDYSIALDKLHQEDFVNWLLAQRG
B16: Sequence 17 (Seq ID. 17) (peptide)
peptide: Y[Aib]EGTFISDYSIALDRLHQQDFVKWLLAQRG
B17: Sequence 1 (Seq ID. 1) (peptide)
peptide: Y[Aib]EGTFISDYSI[Aib]LDKIHQEDFVKWLLAQKG
B18: Peptide 14: N-{ε-30}-18-{[(23R)-23-carboxyl-2,11,20-trioxo-10,19-diaza-4,7,13,16-tetraoxatricosyl-23-yl]amino}-18-oxooctadecanoic acid acetyl-[Aib2, L14, … (peptide)
peptide: Y[Aib]EGTFISDYSIALDRIHQQDFVNWLLAQK(18‑(((23R)-23-carboxyl-2,11,20-trioxo-10,19-diaza-4,7,13,16-tetraoxatricosyl-23-yl)amino)‑18‑oxooctadecanoic acid acetyl)G
B19: Sequence 5 (Seq ID. 5) (peptide)
peptide: Y[Aib]EGTFISDYSIALDEIHQKDFVNWLLAQRG
B20: Sequence 6 (Seq ID. 6) (peptide)
peptide: Y[Aib]EGTFISDYSIALDELHQKDFVNWLLAQRG
B21: Sequence 7 (Seq ID. 7) (peptide)
peptide: Y[Aib]EGTFISDYSIALDKIHQQDFVNWLLAQRG
B22: Peptide 13 (long-acting conjugate of GIP analog, Seq ID. 13) (peptide)
peptide: Y[Aib]EGTFISDYSIALDRIHQQDFVKWLLAQRG
modifications: also: long-acting conjugating component, site and structure not given here
B23: Sequence 9 (Seq ID. 9) (peptide)
peptide: Y[Aib]EGTFISDYSIALDKIHQEDFVNWLLAQRG
B24: Peptide 10: N-{ε-16}-18-{[(23R)-23-carboxyl-2,11,20-trioxo-10,19-diaza-4,7,13,16-tetraoxatricosyl-23-yl]amino}-18-oxooctadecanoic acid acetyl-[Aib2, L14, L17, … (peptide)
peptide: Y[Aib]EGTFISDYSIALDK(18‑(((23R)-23-carboxyl-2,11,20-trioxo-10,19-diaza-4,7,13,16-tetraoxatricosyl-23-yl)amino)‑18‑oxooctadecanoic acid acetyl)LHQEDFVNWLLAQRG
B25: Sequence 2 (Seq ID. 2) (peptide)
peptide: Y[Aib]EGTFISDYSI[Aib]LDEIHQKDFVKWLLAQKG
B26: Sequence 8 (Seq ID. 8) (peptide)
peptide: Y[Aib]EGTFISDYSIALDKLHQQDFVNWLLAQRG
B27: Sequence 4 (Seq ID. 4) (peptide)
peptide: Y[Aib]EGTFISDYSIALDEIHQKDFVKWLLAQKG
B28: Sequence 11 (Seq ID. 11) (peptide)
peptide: Y[Aib]EGTFISDYSIALDRIHQEDFVKWLLAQRG
B29: Peptide 9: N-{ε-16}-18-{[(23R)-23-carboxyl-2,11,20-trioxo-10,19-diaza-4,7,13,16-tetraoxatricosyl-23-yl]amino}-18-oxooctadecanoic acid acetyl-[Aib2, L14, E20, … (peptide)
peptide: Y[Aib]EGTFISDYSIALDK(18‑(((23R)-23-carboxyl-2,11,20-trioxo-10,19-diaza-4,7,13,16-tetraoxatricosyl-23-yl)amino)‑18‑oxooctadecanoic acid acetyl)IHQEDFVNWLLAQRG

Experiments:
hGLP-1R = hGLP-1R (Homo sapiens, UniProt P43220); experiment: Cell agonistic activity at GLP-1 receptor (Example 7); assay type: cell-based
hGLP-1R, sequence (P43220 24-463): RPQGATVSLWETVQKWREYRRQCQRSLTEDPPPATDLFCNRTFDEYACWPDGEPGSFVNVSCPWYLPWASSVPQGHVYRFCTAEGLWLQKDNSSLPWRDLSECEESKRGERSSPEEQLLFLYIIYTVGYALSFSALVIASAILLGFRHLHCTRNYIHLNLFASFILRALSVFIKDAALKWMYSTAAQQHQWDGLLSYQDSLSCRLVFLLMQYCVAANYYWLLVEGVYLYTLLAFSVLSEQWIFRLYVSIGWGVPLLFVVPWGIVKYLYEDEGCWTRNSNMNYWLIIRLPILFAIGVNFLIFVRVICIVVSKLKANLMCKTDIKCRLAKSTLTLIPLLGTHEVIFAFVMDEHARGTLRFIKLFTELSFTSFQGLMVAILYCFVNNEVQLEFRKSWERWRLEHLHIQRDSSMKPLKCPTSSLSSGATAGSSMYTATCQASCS

[1] = biological target: T1, human GIP receptor (glucose-dependent …); experiment: cell-based or functional assay
human GLP-1 receptor [2] = biological target: T2, human GLP-1 receptor (human, UniProt P43220 24-463); experiment: cell-based or functional assay
[3] = biological target: T1, human GIP receptor (glucose-dependent …); experiment: cell-based or functional assay; remark: listed apart in the source
human GLP-1 receptor [4] = biological target: T2, human GLP-1 receptor; experiment: cell-based or functional assay; remark: listed apart in the source

Molecule	EC50 (hGLP-1R) [nM]	EC50(pM), cell agonistic activity (cAMP, HTRF) [1] [pM]	EC50(pM), cell agonistic activity (human GLP-1 receptor [2]) [pM]	EC50(pM), cell agonistic activity (cAMP, HTRF) [3] [pM]	EC50(pM), cell agonistic activity (human GLP-1 receptor [4]) [pM]
CC[C@H](C)[C@H](NC(=O)[C@H](CO)NC(=O)[C@H](Cc1ccc(O)cc1)NC(=O)[C@H](CC(=O)O)NC(=O)[C@H](CO)NC(=O)[C@@H](NC(=O)[C@H](Cc1ccccc1)NC(=O)[C@@H](NC(=O)CNC(=O)[C@H](CCC(=O)O)NC(=O)C(C)(C)NC(=O)[C@@H](N)Cc1ccc(O)cc1)[C@@H](C)O)[C@@H](C)CC)C(=O)N[C@@H](C)C(=O)N[C@@H](CC(C)C)C(=O)N[C@@H](CC(=O)O)C(=O)N[C@@H](CCC(=O)O)C(=O)N[C@@H](CC(C)C)C(=O)N[C@@H](Cc1c[nH]cn1)C(=O)N[C@@H](CCC(N)=O)C(=O)N[C@@H](CCCCN)C(=O)N[C@@H](CC(=O)O)C(=O)N[C@@H](Cc1ccccc1)C(=O)N[C@H](C(=O)N[C@@H](CC(N)=O)C(=O)N[C@@H](Cc1c[nH]c2ccccc12)C(=O)N[C@@H](CC(C)C)C(=O)N[C@@H](CC(C)C)C(=O)N[C@@H](C)C(=O)N[C@@H](CCC(N)=O)C(=O)N[C@@H](CCCNC(=N)N)C(=O)NCC(=O)O)C(C)C [Sequence 6] (H-Y[Aib]EGTFISDYSIALDELHQKDFVNWLLAQRG-OH; N-terminus and C-terminus assumed)	> 0.1	–	–	–	–
B1	–	16.9	> 100	–	–
B2	–	–	–	5.14	> 100
B3	–	–	–	27	> 100
B4	–	–	–	4.26	> 100
B5	–	18.4	> 100	–	–
B6	–	–	–	32.2	> 100
B7	–	–	–	3.5	> 100
B8	–	–	–	6.66	> 100
B9	–	36.2	> 100	–	–
B10	–	25.5	> 100	–	–
B11	–	27.2	> 100	–	–
B12	–	3.41	> 100	–	–
B13	–	0.81	> 100	–	–
B14	–	–	–	9.14	> 100
B15	–	1.63	> 100	–	–
B16	–	58.2	> 100	–	–
B17	–	2.38	> 100	–	–
B18	–	–	–	3.5	> 100
B19	–	6.12	> 100	–	–
B20	–	7.93	> 100	–	–
B21	–	6.04	> 100	–	–
B22	–	–	–	5.61	> 100
B23	–	16.4	> 100	–	–
B24	–	–	–	6.82	> 100
B25	–	10.7	> 100	–	–
B26	–	11.7	> 100	–	–
B27	–	2.87	> 100	–	–
B28	–	3.44	> 100	–	–
B29	–	–	–	7.24	> 100
